From US5840867
Where two headings read alike, the source gives them in different places.

Key:
[1] = biological target: bradykinin (peptide, thiopropyl-derivatised on Sepharose for selection) (UniProt P01042); conditions: method not stated, cited from earlier work
ovalbumin = biological target: T1, ovalbumin (UniProt P01012); assay: filter; conditions: 60 pmol ovalbumin; DNA alone 0.07%
T1 sequence: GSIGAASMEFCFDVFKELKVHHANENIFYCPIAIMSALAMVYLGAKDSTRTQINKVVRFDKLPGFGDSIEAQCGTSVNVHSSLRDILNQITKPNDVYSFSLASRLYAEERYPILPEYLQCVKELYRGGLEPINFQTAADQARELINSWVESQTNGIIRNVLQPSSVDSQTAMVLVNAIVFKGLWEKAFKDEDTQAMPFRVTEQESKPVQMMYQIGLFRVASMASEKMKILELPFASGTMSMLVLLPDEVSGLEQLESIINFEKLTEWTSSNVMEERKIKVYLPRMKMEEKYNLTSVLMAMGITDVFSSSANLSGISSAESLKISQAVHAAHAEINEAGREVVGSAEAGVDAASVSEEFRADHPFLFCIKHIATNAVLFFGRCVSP

thrombin = thrombin (Homo sapiens?) (UniProt P00734+P00734); assay: filter

Chain of bradykinin (peptide, thiopropyl-derivatised on Sepharose for selection) (P01042 whole entry, looked up, tested part not stated): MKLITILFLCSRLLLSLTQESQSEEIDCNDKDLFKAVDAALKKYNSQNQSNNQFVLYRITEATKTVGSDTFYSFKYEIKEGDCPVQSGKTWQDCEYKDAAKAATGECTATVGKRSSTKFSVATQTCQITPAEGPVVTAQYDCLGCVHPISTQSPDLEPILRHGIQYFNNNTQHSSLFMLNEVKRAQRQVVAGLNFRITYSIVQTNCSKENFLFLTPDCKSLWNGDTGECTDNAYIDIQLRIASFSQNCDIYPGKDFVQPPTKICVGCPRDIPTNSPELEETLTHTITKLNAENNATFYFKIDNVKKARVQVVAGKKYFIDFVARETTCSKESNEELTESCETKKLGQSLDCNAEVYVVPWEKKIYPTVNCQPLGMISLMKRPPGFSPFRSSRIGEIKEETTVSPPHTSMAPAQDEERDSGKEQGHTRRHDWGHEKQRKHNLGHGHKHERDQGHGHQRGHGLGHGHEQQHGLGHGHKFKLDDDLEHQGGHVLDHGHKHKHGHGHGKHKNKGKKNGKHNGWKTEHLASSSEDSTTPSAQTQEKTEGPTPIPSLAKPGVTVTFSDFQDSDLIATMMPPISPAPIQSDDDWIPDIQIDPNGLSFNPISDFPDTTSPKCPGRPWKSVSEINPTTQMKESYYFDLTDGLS

**Q.** For “CGTACGGTCGACGCTAGCNNNNNNNNNNNNNNNNNNNNNNNNNNNNNNNNNNNNNNNNNNNNNNNNNNNNNNNNNNNNCACGTGGAGCTCGGATCC [Round 5 bradykinin aptamer pool]”, which Kd ([1]; pool) is on record?
**A.** 50 µM

**Q.** Which results are given for “CGTACGGTCGACGCTAGCNNNNNNNNNNNNNNNNNNNNNNNNNNNNNNNNNNNNNNNNNNNNNNNNNNNNNNNNNNNNCACGTGGAGCTCGGATCC [Round 5 thrombin aptamer pool (96-mer)]”?
**A.** binding signal (ovalbumin): 0.05 % DNA bound; binding signal (thrombin; 60 pmol thrombin, 3.5 pmol DNA in 200 uL selection buffer, RT 1 h, DNA alone 0.07%): 20.4 % DNA bound

**Q.** For “CGTACGGTCGACGCTAGCNNNNNNNNNNNNNNNNNNNNNNNNNNNNNNNNNNNNNNNNNNNNNNNNNNNNNNNNNNNNCACGTGGAGCTCGGATCC [unselected 96-mer pool]”, which binding signal (thrombin; unselected DNA, DNA alone 0.08%) is on record?
**A.** 0.06 % DNA bound

**Q.** And the Kd ([1]; unselected DNA)?
**A.** > 1000 µM
